Experimental data published in patent publication US20040086503A1.

Key:
[1] = target: extracellular domain of IGF-IR (human) (UniProt P08069); assay: SPR (BIAcore 3000), Protocol 1: antibody captured on protein A, IGF-IR ECD injected
[2] = target: extracellular domain of IGF-IR (human) (UniProt P08069); assay: SPR (BIAcore 3000), Protocol 2, essentially as Fagerstam et al.

B1: anti-IGF-IR antibody 2.12.1 (antibody, V domains shown)
VH: QAQLVESGGGLVKPGGSLRLSCAASGFTFSDYYMSWIRQAPGKGLEWVSYISSSGSTRDYADSVKGRFTISRDNAKNSLYLQMNSLRAEDTAVYYCVRDGVETTFYYYYYGMDVWGQGTTVTVSS
VL: DIQMTQSPSSLSASVGDRVTFTCRASQDIRRDLGWYQQKPGKAPKRLIYAASRLQSGVPSRFSGSGSGTEFTLTISSLQPEDFATYYCLQHNNYPRTFGQGTEVEIIR
B1 showed a Kd [1] of 7.37 nM.

B2: anti-IGF-IR antibody 4.17.3 (antibody, human IgG2, V domains shown)
VH: PGLVKPSETLSLTCTVSGGSISSYYWSWIRQPPGKGLEWIGYIYYSGSTNYNPSLKSRVTISVDTSKNQFSLKLSSVTAADTAVYYCARTYSSSFYYYGMDVWGQGTTVTVSS
VL: GDRVTITCRASQSISTFLNWYQQKPGKAPKLLIHVASSLQGGVPSRFSGSGSGTDFTLTISSLQPEDFATYYCQQSYNAPLTFGGGTKVEIK
B2 showed a Kd [1] of 13 nM.

B3: anti-IGF-IR antibody 2.14.3 (antibody, human IgG2, V domains shown)
VH: GPGLVKPSETLSLTCTVSGGSISNYYWSWIRQPAGKGLEWIGRIYTSGSPNYNPSLKSRVTMSVDTSKNQFSLKLNSVTAADTAVYYCAVTIFGVVIIFDYWGQGTLVTVSS
VL: SSLSASVGDRVTFTCRASQDIRRDLGWYQQKPGKAPKRLIYAASRLQSGVPSRFSGSGSGTEFTLTISSLQPEDFATYYCLQHNNYPRTFGQGTEVEIIR
Work on B3 yielded a Kd [1] of 0.641 nM.

B4: anti-IGF-IR antibody 2.13.2 (antibody, V domains shown)
VH: EVQLLESGGGLVQPGGSLRLSCTASGFTFSSYAMNWVRQAPGKGLEWVSAISGSGGTTFYADSVKGRFTISRDNSRTTLYLQMNSLRAEDTAVYYCAKDLGWSDSYYYYYGMDVWGQGTTVTVSS
VL: DIQMTQFPSSLSASVGDRVTITCRASQGIRNDLGWYQQKPGKAPKRLIYAASRLHRGVPSRFSGSGSGTEFTLTISSLQPEDFATYYCLQHNSYPCSFGQGTKLEIKR
With B4 the Kd [1] was 3.5 nM and the Kd [2] was 1.53 nM.
